T1: human EpCAM on EpCAM positive human carcinoma cells (SW480, SK-OV-3) (human, UniProt P16422 24-314)
T1 sequence (looked up): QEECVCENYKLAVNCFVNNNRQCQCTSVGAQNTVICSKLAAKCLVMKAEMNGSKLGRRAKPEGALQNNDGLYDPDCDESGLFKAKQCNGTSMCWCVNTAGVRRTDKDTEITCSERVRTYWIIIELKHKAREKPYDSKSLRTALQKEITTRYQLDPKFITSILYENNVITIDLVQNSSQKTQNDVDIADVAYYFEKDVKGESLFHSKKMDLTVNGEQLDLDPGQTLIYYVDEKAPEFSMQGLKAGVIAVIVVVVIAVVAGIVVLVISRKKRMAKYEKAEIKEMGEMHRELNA

B1: Protease-treated (MMP-9 cleaved) AC1278, His(8)-aEpCAM-aCD3 cleaved fragment (bispecific antibody)
chain: HHHHHHHHELVMTQSPSSLTVTAGEKVTMSCKSSQSLLNSGNQKNYLTWYQQKPGQPPKLLIYWASTRESGVPDRFTGSGSGTDFTLTISSVQAEDLAVYYCQNDYSYPLTFGAGTKLEIKGGGGSGGGGSGGGGSEVQLLEQSGAELVRPGTSVKISCKASGYAFTNYWLGWVKQRPGHGLEWIGDIFPGSGNIHYNEKFKGKATLTADKSSSTAYMQLSSLTFEDSAVYFCARLRNWDEPMDYWGQGTTVTVSSGGGGSDVQLVQSGAEVKKPGASVKVSCKASGYTFTRYTMHWVRQAPGQGLEWIGYINPSRGYTNYADSVKGRFTITTDKSTSTAYMELSSLRSEDTATYYCARYYDDHYCLDYWGQGTTVTVSSGEGTSTGSGGSGGSGGADDIVLTQSPATLSLSPGERATLSCRASQSVSYMNWYQQKPGKAPKRWIYDTSKVASGVPARFSGSGSGTDYSLTINSLEAEDAATYYCQQWSSNPLTFGGGTKVEIKGTAEAASASGLSGRSDNHSPLG
B2: AC1278 His(8)-aEpCAM-aCD3-BSRS1-XTEN_AE864, protease-untreated (intact) anti-EpCAM×anti-CD3 ProTIA (bispecific antibody)
chain: HHHHHHHHELVMTQSPSSLTVTAGEKVTMSCKSSQSLLNSGNQKNYLTWYQQKPGQPPKLLIYWASTRESGVPDRFTGSGSGTDFTLTISSVQAEDLAVYYCQNDYSYPLTFGAGTKLEIKGGGGSGGGGSGGGGSEVQLLEQSGAELVRPGTSVKISCKASGYAFTNYWLGWVKQRPGHGLEWIGDIFPGSGNIHYNEKFKGKATLTADKSSSTAYMQLSSLTFEDSAVYFCARLRNWDEPMDYWGQGTTVTVSSGGGGSDVQLVQSGAEVKKPGASVKVSCKASGYTFTRYTMHWVRQAPGQGLEWIGYINPSRGYTNYADSVKGRFTITTDKSTSTAYMELSSLRSEDTATYYCARYYDDHYCLDYWGQGTTVTVSSGEGTSTGSGGSGGSGGADDIVLTQSPATLSLSPGERATLSCRASQSVSYMNWYQQKPGKAPKRWIYDTSKVASGVPARFSGSGSGTDYSLTINSLEAEDAATYYCQQWSSNPLTFGGGTKVEIKGTAEAASASGLSGRSDNHSPLGLAGSPGSPAGSPTSTEEGTSESATPESGPGTSTEPSEGSAPGSPAGSPTSTEEGTSTEPSEGSAPGTSTEPSEGSAPGTSESATPESGPGSEPATSGSETPGSEPATSGSETPGSPAGSPTSTEEGTSESATPESGPGTSTEPSEGSAPGTSTEPSEGSAPGSPAGSPTSTEEGTSTEPSEGSAPGTSTEPSEGSAPGTSESATPESGPGTSTEPSEGSAPGTSESATPESGPGSEPATSGSETPGTSTEPSEGSAPGTSTEPSEGSAPGTSESATPESGPGTSESATPESGPGSPAGSPTSTEEGTSESATPESGPGSEPATSGSETPGTSESATPESGPGTSTEPSEGSAPGTSTEPSEGSAPGTSTEPSEGSAPGTSTEPSEGSAPGTSTEPSEGSAPGTSTEPSEGSAPGSPAGSPTSTEEGTSTEPSEGSAPGTSESATPESGPGSEPATSGSETPGTSESATPESGPGSEPATSGSETPGTSESATPESGPGTSTEPSEGSAPGTSESATPESGPGSPAGSPTSTEEGSPAGSPTSTEEGSPAGSPTSTEEGTSESATPESGPGTSTEPSEGSAPGTSESATPESGPGSEPATSGSETPGTSESATPESGPGSEPATSGSETPGTSESATPESGPGTSTEPSEGSAPGSPAGSPTSTEEGTSESATPESGPGSEPATSGSETPGTSESATPESGPGSPAGSPTSTEEGSPAGSPTSTEEGTSTEPSEGSAPGTSESATPESGPGTSESATPESGPGTSESATPESGPGSEPATSGSETPGSEPATSGSETPGSPAGSPTSTEEGTSTEPSEGSAPGTSTEPSEGSAPGSEPATSGSETPGTSESATPESGPGTSTEPSEGSAPG

Target: T1, human EpCAM on EpCAM positive human …
Test: cell-based or functional assay

Row | Binder | EC50, LDH release cytotoxicity, PBMC:SW480 5:1 [pM]
1 | B1 | 8.9
2 | B2 | 288
